In PMC5678773:

Biological target: T1, CIB1 (cryptochrome-interacting basic-helix-loop-helix) fused with the GAL4 DNA-binding domain (Arabidopsis) (UniProt Q8GY61)
T1 sequence: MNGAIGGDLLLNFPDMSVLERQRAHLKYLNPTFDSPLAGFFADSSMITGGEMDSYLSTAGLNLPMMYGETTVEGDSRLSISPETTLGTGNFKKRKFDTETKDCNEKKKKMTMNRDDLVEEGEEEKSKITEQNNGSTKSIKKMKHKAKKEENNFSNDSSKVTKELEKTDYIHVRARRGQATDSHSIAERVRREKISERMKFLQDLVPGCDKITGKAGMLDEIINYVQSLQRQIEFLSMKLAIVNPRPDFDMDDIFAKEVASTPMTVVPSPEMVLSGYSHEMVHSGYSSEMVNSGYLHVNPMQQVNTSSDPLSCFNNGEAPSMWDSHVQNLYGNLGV

## CRY2 (cryptochrome 2) fused with the VP16 transcription activation domain (from UniProt Q96524 1-612) (natural protein)
  amiR-D1 transcript (gene downstream of the UAS) by quantitative PCR in the transgenic alga, after blue light irradiation against before (red light culture): > 14 fold
